The results in this text go back to ChEMBL document CHEMBL3352481, “Synthesis of {[5-(adenin-9-yl)-2-furyl]methoxy}methyl phosphonic acid and evaluations against human adenylate kinases” (Bioorg Med Chem Lett, 2014).

Settings in all cases: Homo sapiens; call rule not given here
Substrate in data set [1]: Nc1ncnc2c1ncn2-c1ccc(CO)o1
Put plainly: (§1) Ratio of Kcat to Km for recombinant AK1 (unknown origin).

Substrate in data set [2]: C[C@H](Cn1cnc2c(N)ncnc21)OCP(=O)(O)O
The description is as §1.

Substrate in data set [3]: Nc1ncnc2c1ncn2CCOCP(=O)(O)O
The data set is described as §1.

Substrate in data set [4]: Nc1ncnc2c1ncn2[C@@H]1O[C@H](COP(=O)(O)O)[C@@H](O)[C@H]1O
The data set is described as §1.

Substrate in data set [5]: Nc1ncnc2c1ncn2-c1ccc(COCP(=O)(O)O)o1
Described as §1.

Substrate in data set [6]: Nc1ncnc2c1ncn2[C@H]1C[C@H](O)[C@@H](COP(=O)(O)O)O1
The data set is described as §1.

Substrate in data set [7]: Nc1ncnc2c1ncn2-c1ccc(CO)o1
Put plainly: (§2) Activity of recombinant AK1 (unknown origin) assessed as ADP formation by spectroscopic pyruvate kinase/lactate dehydrogenase coupled assay.

Substrate in data set [8]: C[C@H](Cn1cnc2c(N)ncnc21)OCP(=O)(O)O
Described as §2.

Substrate in data set [9]: Nc1ncnc2c1ncn2CCOCP(=O)(O)O
Described as §2.

Substrate in data set [10]: Nc1ncnc2c1ncn2[C@@H]1O[C@H](COP(=O)(O)O)[C@@H](O)[C@H]1O
The description is as §2.

Substrate in data set [11]: Nc1ncnc2c1ncn2-c1ccc(COCP(=O)(O)O)o1
Described as §2.

Substrate in data set [12]: Nc1ncnc2c1ncn2[C@H]1C[C@H](O)[C@@H](COP(=O)(O)O)O1
The description is as §2.

B1: Adenylate kinase isoenzyme 1 (Homo sapiens), P00568 (protein)
chain: MEEKLKKTKIIFVVGGPGSGKGTQCEKIVQKYGYTHLSTGDLLRSEVSSGSARGKKLSEIMEKGQLVPLETVLDMLRDAMVAKVNTSKGFLIDGYPREVQQGEEFERRIGQPTLLLYVDAGPETMTQRLLKRGETSGRVDDNEETIKKRLETYYKATEPVIAFYEKRGIVRKVNAEGSVDSVFSQVCTHLDALK
In the case of B1, the kcat/Km entry in [1] is “Not Active”; in data set [2] it was 75 M⁻¹ s⁻¹; in [3] it was 14 ×10⁶ /M/s; in data set [4], 2.85 ×10⁶ /M/s; in [5], “Not Active”; in data set [6] it was 0.16 ×10⁶ /M/s. In addition, the Km result was “Not Active” in data set [7]; 3000 µM in [8]; 6000 µM in data set [9]; 175 µM in [10]; “Not Active” in [11]; 1500 µM in data set [12]. Besides, the kcat result in data set [7] was “Not Active”; in data set [8], 0.22 s⁻¹; in data set [9], 0.08 s⁻¹; in data set [10], 500 s⁻¹; in data set [11], “Not Active”; in data set [12], 240 s⁻¹.

A word on the Km: it is the substrate concentration at which the rate is half of its maximum. A word on the kcat: it is the maximal rate divided by the concentration of active sites.
